# Source: the nanobody polyreactivity screen of Harvey et al. (2022)
# Assay: yeast display, Sf9 membrane polyspecificity reagent, FACS + sequencing; frameworks hold sequencing errors
# Procedure, shortened: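 A nanobody's polyreactivity label depends on the gate it was sorted from. Yeast display cells were stained with 10% biotinylated, detergent-solubilized Sf9 membrane reagent for 1 hour at 4 °C, enriched on streptavidin microbeads and sorted by FACS. The low and high (top ~1%) gates were set on anti-HA fluorescence for expression and streptavidin fluorescence for reagent binding.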
row,Sequence,polyreactivity (PSR sort gate)
1,QVKLVESGGGLVQAGGSLRLSCAASGIIFTFYSMGRYRQAPGKERELVAAITGSGGSTYYADSVKGRFTISRDNAKNSVYLQMNSLKPEDTAVYYCAADGPYGYYYGHYGYWGHGTQVTVSS,low polyreactivity
2,QVQLVESGGGLVQAGGSLRLSCAASGRTFSSYAMGWYRQAPGKERELVAAIRVSGGITYYADSVKGRFTISRDNAKNTVYLQMNSLKPEDTAVYYCNAGVDFIGGSYLKYDYWGQGTKVTVSS,low polyreactivity
3,QVQLVESGGGIVQAGGTLRLSCAPYGSNYYAMACYRQAPGKDRDFVAAITTRGGGTYYADSVKGRFTISRDNAQNTVYLQMFSLKPVDTAVYVCAAEDYRPRTYVYRYRYYYWGQGTQVTVSS,high polyreactivity
4,QVQLVESGGGLVQAGGSLRLSCAASGRTFLPNAMGWYRQAPGKERELVAVITSGGSTNYADSVKGRFTISRDNAKNTVYLQMNSLKQEDTAVYYCAARRWSSSQGHWGKSAGYGYWGQGTQVTVSS,low polyreactivity
5,QVQLVESGGGLVQAGGSLRLSCAASGSSFEPNAMGWYRQAPGKERELVASITSSGGNTYYADSVKGRFTISRDNAKNTVYLQMNSLKPEDTAVYSCAAGSGYAFGGYYLWGFGYWGQGTQVTVSS,low polyreactivity
6,QVQLVESGGGLVQAGGSLRLSCAASGITFYGYDMGWYRQAPGKERELFAAISRSGGSTYYADSVKGRFTISRDNAKNTVYLQMNSLKPEDTAVYYCAADKQGYLGRTAFRYYYWGQGTQVTVSS,high polyreactivity
7,QVQLVESGGGLVQAGGSLRLSCAASGRTFGRYAKGWYRQAPGKERELVAAISWSGGSTYYADSVKGRFTISRDNAKNTVYLQMNSLKPEDTAVYYCAAVTTDGVYAFDYWGQGTQVTVSS,low polyreactivity
8,QVQLVESGGGLVQAGGSLRLSCAASGIIFKYYAMGWYRQAPGKERELVAAITWSDTRTYYADSVKGRFTISRDNAMNTVYLQMNSLKPEDTAVYYCAVDEPSLYSWGGGYYWGQGTQVTVSS,high polyreactivity
9,QVKLVESGGGLVQAGGSLRLSCAASGFIFPDYAMGWYRQAPGKERELVAAITSSGGRTYYADSVKGRFTISRDNAKNTVYLQMNSLKPEDTAVYYCAARTISPRGYGSDYWGQGTQVTVSS,high polyreactivity
10,QVQLVESGVGLVQAGGSHRLSCSASGSIIEENSMGWYRQAPGKERELVAAITIGGRTNYADSVKGRFTISRDNAKNTVYLQMNSLKPEDTAVYYCAADLSSNKYFRFWTRYYYWGQGTQVTVSS,low polyreactivity
11,QVQLVESGGGLVQAGGSLRLSCAASGGTFNRYAMGWYRQAPGKERELVAAISWSGGSTYYADSVKGRFTISRDTAKNTVYLQMNSLKPEDTAVYYCNARNWYYEGDYWGQGTQVTVSS,high polyreactivity
12,QVQLVESGGGLVQAGGSLRLSCAASGNTFYWYVMGWYRQAPGKERELVARITSSGGSTNYADSVKGRFTISRDNAKNTVYLQMNSLKPEDTAVYYCAADDIYLYGGGTDYYYWGQGTQVTVSS,low polyreactivity
13,QVQLVESGGGLVQAGGSLRLSCAASGRTFRSNAMGWYRQAPGKERELVAAISNSGASTYYADSVKGRFTISRDNAKNTFYLQMNSLKPEDTAVYYCAADYYRPYRYDYWGQGTQVTVSS,high polyreactivity
14,QVQLVESGGGLVQAGGSLRLSCAASVNIFSFYAMGWNRQAPGKERELVAAIIWSGGDTYYADSVKGRFTISLDNAKNTVYLQMNSLKPEDTAVYYCAAEYYYQYYPGGYDYWGQGSQVTVSS,high polyreactivity
15,QVQLVESGGGLVQAGGSLRLSCAASGRIFVFYAMGWYRQAPGKERELVAAITASSTRTYYADSVKGRFTISRDHAKNTVYLQLNSLKPEDTAVYYCARDIRQYILYGRGDYWGQGTQVTVSS,low polyreactivity
16,QVQLVESGGGLVQAGGSLRLSCAASGYIFPPYAMGWYRQAPGKERELVATITGIGGSTYYADSVKGRFTISRDNAKNTVYLQMNSLKPEDTAVYYCAARRDGYGTHYDYWGQGTQVTVSS,low polyreactivity
17,QVQLVESGVGLVQAGGSLRLSCAASGRTFAIYTMGWYRQAPGKERELVARISIRGGSTYYADSVKGRFTISRDTAKITFYLQLTSLKPEDNAVYYCAAVGYFGGYRYDYWGQGTQVSVSS,high polyreactivity
